The chains are these.
B1: MMP-12 P1-44 (VHH)
VHH: QVQLQESGGGLVQPGGSLRLSCAASGFTFNNHWLYWVRQAQGKGLEWVSAINPGGSTVYLDSVKGRFTISRGNTKNTLYLQMNSLKSEDTAVYYCTKAMAWATDWDEYDLWGQGTQVTVSS
notes: Tested as periplasmic extract, detected through its c-myc tag
B2: MMP-12 P1-41 (VHH)
VHH: QVQLQDSGGGLVRTGDSLRLSCVVFGGTISTYAMGWFRRAPGKEREFVAAIDASGGFTEYADSVRGRFRIARDNPLSAVYLQMNSLKPEDTAFYYCAADKDRDTVVRFTTTPNEYDYWGQGTQVTVSS
notes: as for B1
B3: MMP-12 P5-29 (VHH)
VHH: QVQLQESGGGLVQAGGSLRLSCAASGRTFTVYTTGWFRQAPGKEREFVAAIDWSGSSTYYTDSVKGRFTISRDNTKNTVYLQMNSLKPEDTAVYYCAARDAIVGVTDTSGYRYWGQGTQVTVSS
notes: Selected on active MMP-12 on nitrocellulose (Hybond-C); also called clone P5-29
B4: MMP-12 P1-1 (VHH)
VHH: QVQLQESGGGLVQPGGSLRLSCVASGFTFSDYPMAWVRQAPGKGLEWISVINSGGVNTSYAASVKGRFTISRDNAKNTLFLQMNSLKPEDTAVYYCAKYSLKNEQYWRGQGTQVTVSS
notes: Tested as periplasmic extract, detected through its c-myc tag (pAX004: c-myc and hexahistidine tags)
B5: MMP-12 P1-26 (VHH)
VHH: QVQLQESGGGLVRAGGSLRLSCVASGRTLSKYRMGWFRQFPGKERELVAEIEWKSSSTWYRDSVKGRFTISRDNAKNTVYLRMNSLKPEDTAVYYCAAATLGEPLVKYTYWGQGTQVTVSS
notes: as for B1
B6: EGFR-B11 (VHH)
VHH: QVQLQDSGGGLVQAGGSLRLSCAASRFSSAQYAIGWFRQAPGKEREGVSYITFSGGPTGYADSVKGRFTVSRDNAKNTVYLQMNSLKPEDTAVYYCAARPYTRPGSMWVSSLYDNWGQGTQVTVSS
notes: From the internalization selection
B7: EGFR-F11 (VHH)
VHH: QVQLQESGGRLVQAGGSLRLSCAASEHTFRGYAIGWFRQAPGKEREFVSSITYDGTLTNYADSVTGRFTISRDNAKNTVYLQMNSLKPEDTAVYVCAAGYSYRYTTLNQYDSWGQGTQVTVSS
notes: From the internalization selection; also called clone EGFR-F11
B8: VHH#3E-His tag (VHH)
VHH: QVQLQESGGGLVQPGGSLRLSCAASGRTFSDHSGYTYTIGWFRQAPKEREFVARIYWSSGNTYYADSVKGRFAISRDIAKNTVDLTMNNLEPEDTAVYYCAARDGIPTSRSVESYNYWGQGTQVTVSS
notes: protein was purified by IMAC; also called TNF3E; VHH TNF3E

In one experiment the target is T1, human MMP-12 catalytic domain (human, UniProt P39900 106-263).
T1 construct: domain: catalytic domain; Sources: Prof; H. Tschesche (Universität Bielefeld) and Biomol Research laboratories Inc (SE 138-9090); also called human macrophage elastase
As to the kind of experiment: ELISA / dot blot on immobilized human MMP-12 catalytic domain, periplasmic extract, anti-c-myc detection. How it is done:
To examine the clones selected using solid phase coated human MMP-12, plates were coated with human MMP-12 catalytic domain at a concentration of 1 μg/ml overnight at 4° C. Plates were washed 5 times with PBS/0.05% Tween-20. Wells were blocked with 1% skimmed milk for 2 hrs at room temperature. Periplasmic extracts (100 μl) were applied to the wells and incubated for 1 hour at room temperature. Plates were washed 5 times with PBS/0.05% Tween-20. Detection was performed using anti-c-myc antibody, followed by anti-mouse-HRP and ABTS/H₂O₂ as substrate. Plates were read at 405 nm after 30 minutes incubation at room temperature.
To examine the clones selected using membrane immobilized human MMP-12, 50 ng human MMP-12 catalytic domain samples were spotted on PVDF membrane as described in the manufacturers guidelines. 50 ng lysozyme was spotted as a negative control. The membranes were blocked with skimmed milk overnight at 4° C., washed 5 times with PBS and transferred to 1.5 ml tubes. Periplasmic extracts (100 μl) were tenfold diluted in 1% skimmed milk and 1 ml was applied per membrane (2 cm²) and rotated for 1 hour at room temperature. Membranes were washed 5 times with PBS/0.05% Tween-20. Detection was performed using anti-c-myc antibody, followed by anti-mouse-HRP and DAP as substrate. Membranes were incubated with substrate at room temperature until clear spots were visible.
A general note: ELISA stands for enzyme-linked immunosorbent assay.
On to B1, for which the binding result is on record as “binds”.

With B2, the binding result is “binds”.

With B3, the binding result is given as “binds”.

For the molecule B4, the binding result was “binds”.

Take B5: the binding result was “binds”.

The next experiment concerns the target T2, active catalytic domain of MMP 1 (UniProt P03956 100-269, limits assumed).
T2 construct: domain: catalytic domain
T2 sequence (looked up): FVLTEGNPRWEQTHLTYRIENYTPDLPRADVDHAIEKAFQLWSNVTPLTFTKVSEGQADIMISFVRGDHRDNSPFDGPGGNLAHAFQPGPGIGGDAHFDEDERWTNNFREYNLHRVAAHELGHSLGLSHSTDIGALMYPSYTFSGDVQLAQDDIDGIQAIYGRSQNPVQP
Briefly: dot blot, 50 ng catalytic domain on Hybond C-extra, periplasmic extract, anti-c-myc detection. How it is done: (§1) In order to check for non specific binding to other MMPs a similar approach was followed in which 50 ng of active catalytic domain of MMP 1, 2, 3, 7, 9 and 13 (all from Biomol Research laboratories Inc) was immobilized on Hybond C-extra. The membranes were blocked with skimmed milk overnight at 4° C., washed 5 times with PBS and transferred to 1.5 ml tubes. Periplasmic extracts (100 μl) were tenfold diluted in 1% skimmed milk and 1 ml was applied per membrane (2 cm²) and rotated for 1 hour at room temperature. Membranes were washed 5 times with PBS/0.05% Tween-20. Detection was performed using anti-c-myc antibody, followed by anti-mouse-HRP and DAP as substrate. Membranes were incubated with substrate at room temperature until clear spots were visible.
For B1, the binding result is recorded as “no binding”.

B2: the binding result was “no binding”.

Take B4: the binding result is “no binding”.

As to B5, the binding result is recorded as “no binding”.

The target in another experiment is T3, active catalytic domain of MMP 7 (UniProt P09237 95-267).
T3 construct: domain: catalytic domain
T3 sequence (looked up): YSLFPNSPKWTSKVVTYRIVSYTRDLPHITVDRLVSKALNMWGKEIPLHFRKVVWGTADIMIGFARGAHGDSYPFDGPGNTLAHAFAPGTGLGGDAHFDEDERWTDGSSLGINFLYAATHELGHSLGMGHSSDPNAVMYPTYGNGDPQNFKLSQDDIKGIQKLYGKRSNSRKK
Described as above. How it is done: as §1
As to B1, the binding result is “no binding”.

For B2, the binding result is “no binding”.

As for B4, the binding result is given as “no binding”.

In the case of B5, the binding result was “no binding”.

A further experiment deals with T4, active catalytic domain of MMP 9 (UniProt P14780 107-444, limits assumed).
T4 construct: domain: catalytic domain
Described as above. As for the experimental part:
as §1
On to B1, for which the binding result was “no binding”.

B2: the binding result is reported as “no binding”.

For the molecule B4, the binding result was “no binding”.

Regarding B5, the binding result is given as “no binding”.

In the next experiment the target is active catalytic domain of MMP 13 (UniProt P45452 104-274). The experiment is described as above. As for the experimental part: as §1
As for B1, the binding result is reported as “no binding”.

As to B2, the binding result is reported as “no binding”.

On to B4, for which the binding result is “no binding”.

For the molecule B5, the binding result was “no binding”.

For the next experiment, the target named is T5, active catalytic domain of MMP 2 (UniProt P08253 110-452, limits assumed).
T5 construct: domain: catalytic domain
The description is as above. As for the experimental part: as §1
B1: the binding result is “no binding”.

As to B2, the binding result is “no binding”.

Regarding B4, the binding result was “no binding”.

Regarding B5, the binding result was “no binding”.

The target in a further experiment is T6, active catalytic domain of MMP 3 (UniProt P08254 100-272, limits assumed).
T6 construct: domain: catalytic domain
Described as above. How it is done:
as §1
In the case of B1, the binding result is reported as “no binding”.

Regarding B2, the binding result is given as “no binding”.

Consider B4, for which the binding result is “no binding”.

In the case of B5, the binding result was “no binding”.

The target in the next experiment is T7, human EGFR expressed on cells (Her-14 mouse fibroblasts; A431 carcinoma cells) (human, UniProt P00533 25-1210).
T7 construct: whole, on cells; Parental NIH3T3 clone 2.2 (3T3) cells served as EGFR-negative control; also called EGFR^+ cells
As to the kind of experiment: phage ELISA on cells.
As to B6, the binding result is recorded as “binds”.

For the molecule B7, the binding result was “binds”.

For a further experiment, the target named is T8, human TNF-alpha (human, UniProt P01375 77-233).
T8 construct: also called TNFα; biotinylated TNF-alpha
Briefly: competition ELISA: VHH preincubated with biotinylated TNF-alpha, binding to immobilized receptor extracellular domain. How it is done: 100 μl of this mixture was transferred to a well of a microtiter plate, in which the extracellular domain of the receptor was immobilized.
Consider B8, for which the binding result is “binds”.
